In publication doi:10.1101/2025.01.10.632409:

Biological target: TatC from Pisum sativum (thylakoidal) (Pisum sativum (endogenous in pea thylakoids))
Assay: native gel or EMSA

stoichiometry N: 3
Substance: TatC from Pisum sativum (thylakoidal) (natural protein)
